Reference: paper PMC3587332 (FEBS letters, 2012)
One block for each binder: values may come before it.

Key:
Pap1-GST = Pap1-GST (S. cerevisiae, UniProt P29468 1-568); experiment: pull-down
Pap1-His6 [1] = target: T1, Pap1-His6 (S. cerevisiae, UniProt P29468 1-568); experiment: pull-down
Pap1-His6 [2] = target: T1, Pap1-His6; experiment: co-IP
ΔN-Pap1-His6 = ΔN-Pap1-His6 (S. cerevisiae, UniProt P29468 19-568); experiment: co-IP
ΔN-Pap1-GST = ΔN-Pap1-GST (S. cerevisiae, UniProt P29468 19-568); experiment: pull-down
ΔN-Pap1-GST, sequence (P29468 19-568, stated change not applied): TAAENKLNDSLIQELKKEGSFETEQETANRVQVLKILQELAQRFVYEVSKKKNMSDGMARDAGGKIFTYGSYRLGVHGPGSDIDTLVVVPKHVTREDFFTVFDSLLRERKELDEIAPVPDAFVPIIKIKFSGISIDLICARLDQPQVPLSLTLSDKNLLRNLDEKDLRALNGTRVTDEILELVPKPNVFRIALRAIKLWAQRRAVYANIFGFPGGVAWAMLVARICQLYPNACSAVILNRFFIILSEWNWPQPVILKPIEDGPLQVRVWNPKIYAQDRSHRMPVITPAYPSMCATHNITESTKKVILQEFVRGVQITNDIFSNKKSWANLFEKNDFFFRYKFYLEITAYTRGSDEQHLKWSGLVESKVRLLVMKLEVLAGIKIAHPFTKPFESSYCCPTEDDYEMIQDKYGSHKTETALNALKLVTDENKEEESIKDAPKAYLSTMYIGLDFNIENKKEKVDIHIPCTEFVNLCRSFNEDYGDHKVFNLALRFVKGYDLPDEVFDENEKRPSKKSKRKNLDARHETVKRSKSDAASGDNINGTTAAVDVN

Pap1-GST, sequence (P29468 whole entry): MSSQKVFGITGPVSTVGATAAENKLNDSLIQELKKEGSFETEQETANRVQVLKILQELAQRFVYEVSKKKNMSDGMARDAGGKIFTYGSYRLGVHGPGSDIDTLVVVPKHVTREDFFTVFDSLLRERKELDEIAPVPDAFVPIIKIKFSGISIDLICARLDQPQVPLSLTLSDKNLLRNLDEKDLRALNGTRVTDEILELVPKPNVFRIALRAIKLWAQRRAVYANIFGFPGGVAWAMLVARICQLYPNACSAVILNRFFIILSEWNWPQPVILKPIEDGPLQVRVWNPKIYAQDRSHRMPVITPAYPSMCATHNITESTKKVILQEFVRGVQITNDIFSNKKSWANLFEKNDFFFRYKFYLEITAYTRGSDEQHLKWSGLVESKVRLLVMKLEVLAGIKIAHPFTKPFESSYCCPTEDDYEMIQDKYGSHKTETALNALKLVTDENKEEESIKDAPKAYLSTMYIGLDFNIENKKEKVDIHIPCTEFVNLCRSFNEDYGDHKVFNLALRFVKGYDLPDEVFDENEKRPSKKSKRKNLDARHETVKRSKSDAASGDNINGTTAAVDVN
T1 sequence (P29468 whole entry): as above
ΔN-Pap1-His6, sequence (P29468 19-568, stated change not applied): as the sequence (P29468 19-568, stated change not applied) above

B2: Nab6-V5-His6 (the last 210 amino acids) (domain or fragment, S. cerevisiae, UniProt Q03735 925-1134, looked up)
chain: GGGETGTANNTGHENESELEAENENGNETGSFGGLGLAVASSDVKRATSDETDYEDIFNKSSGSSDSSSDVEVIMHSPSDPEYALKSQTLRSSSQTVINSKRPVKIEDEEEAVGMSQLNYRSSLRQAPPRAPSTLSYNHSKNNETPMQDIFTNGETANNRKKKRGSFARHRTIPGSDVMAQYLAQVQHSTFMYAANILGASAEDNTHPDE
- binding result (Pap1-GST): binds

B4: Fip1(1–206) (domain or fragment, S. cerevisiae, UniProt P45976 1-206, looked up)
chain: MSSSEDEDDKFLYGSDSELALPSSKRSRDDEADAGASSNPDIVKRQKFDSPVEETPATARDDRSDEDIYSDSSDDDSDSDLEVIISLGPDPTRLDAKLLDSYSTAATSSSKDVISVATDVSNTITKTSDERLITEGEANQGVTATTVKATESDGNVPKAMTGSIDLDKEGIFDSVGITTIDPEVLKEKPWRQPGANLSDYFNYGFN
- binding result (Pap1-His6 [2]): binds
- binding result (ΔN-Pap1-His6): binds
- binding result (Pap1-GST): binds
- binding result (ΔN-Pap1-GST): binds

The next lines start with the values.

- binding result (Pap1-GST): binds
B1: Sub1-V5-His6 (natural protein, S. cerevisiae, UniProt P54000 1-292, looked up)
chain: MSYYNRYRNKRRSDNGGGNLSNSNNNNGGMPSGLSASDAIFDLGKNKRVTVRQFRNINLIDIREYYLDSSTGEMKPGKKGISLTEDLYDELLKHRLNIDEALRRLGSKRPKTKMVRLLSDDEYEDDNNNDSTNNDKDKNGKDKNSPKKRREDKSKASNESHDLEPRSKKKKPAPPTLLPHEENIQNAEREANATLIIPGQAGRKQQEERKQKEKEEAEEAKAKAVAEQEKEAKAKEKIAEPEPEPVPTLQAKKEDIVSNINESKDANSSDEEFAQSLEAEMNKAEDDISEEE

- binding result (Pap1-His6 [1]): binds
B3: GST-Pta1 (1–300) (domain or fragment, S. cerevisiae, UniProt Q01329 1-300, looked up)
chain: MSSAEMEQLLQAKTLAMHNNPTEMLPKVLETTASMYHNGNLSKLKLPLAKFFTQLVLDVVSMDSPIANTERPFIAAQYLPLLLAMAQSTADVLVYKNIVLIMCASYPLVLDLVAKTSNQEMFDQLCMLKKFVLSHWRTAYPLRATVDDETDVEQWLAQIDQNIGVKLATIKFISEVVLSQTKSPSGNEINSSTIPDNHPVLNKPALESEAKRLLDMLLNYLIEEQYMVSSVFIGIINSLSFVIKRRPQTTIRILSGLLRFNVDAKFPLEGKSDLNYKLSKRFVERAYKNFVQFGLKNQII
